The values below are quoted from earlier work in article PMC2910649.

The data set addresses VEGFR2 (Homo sapiens) (UniProt P35968).
Chain of UniProt P35968 (P35968 20-1356): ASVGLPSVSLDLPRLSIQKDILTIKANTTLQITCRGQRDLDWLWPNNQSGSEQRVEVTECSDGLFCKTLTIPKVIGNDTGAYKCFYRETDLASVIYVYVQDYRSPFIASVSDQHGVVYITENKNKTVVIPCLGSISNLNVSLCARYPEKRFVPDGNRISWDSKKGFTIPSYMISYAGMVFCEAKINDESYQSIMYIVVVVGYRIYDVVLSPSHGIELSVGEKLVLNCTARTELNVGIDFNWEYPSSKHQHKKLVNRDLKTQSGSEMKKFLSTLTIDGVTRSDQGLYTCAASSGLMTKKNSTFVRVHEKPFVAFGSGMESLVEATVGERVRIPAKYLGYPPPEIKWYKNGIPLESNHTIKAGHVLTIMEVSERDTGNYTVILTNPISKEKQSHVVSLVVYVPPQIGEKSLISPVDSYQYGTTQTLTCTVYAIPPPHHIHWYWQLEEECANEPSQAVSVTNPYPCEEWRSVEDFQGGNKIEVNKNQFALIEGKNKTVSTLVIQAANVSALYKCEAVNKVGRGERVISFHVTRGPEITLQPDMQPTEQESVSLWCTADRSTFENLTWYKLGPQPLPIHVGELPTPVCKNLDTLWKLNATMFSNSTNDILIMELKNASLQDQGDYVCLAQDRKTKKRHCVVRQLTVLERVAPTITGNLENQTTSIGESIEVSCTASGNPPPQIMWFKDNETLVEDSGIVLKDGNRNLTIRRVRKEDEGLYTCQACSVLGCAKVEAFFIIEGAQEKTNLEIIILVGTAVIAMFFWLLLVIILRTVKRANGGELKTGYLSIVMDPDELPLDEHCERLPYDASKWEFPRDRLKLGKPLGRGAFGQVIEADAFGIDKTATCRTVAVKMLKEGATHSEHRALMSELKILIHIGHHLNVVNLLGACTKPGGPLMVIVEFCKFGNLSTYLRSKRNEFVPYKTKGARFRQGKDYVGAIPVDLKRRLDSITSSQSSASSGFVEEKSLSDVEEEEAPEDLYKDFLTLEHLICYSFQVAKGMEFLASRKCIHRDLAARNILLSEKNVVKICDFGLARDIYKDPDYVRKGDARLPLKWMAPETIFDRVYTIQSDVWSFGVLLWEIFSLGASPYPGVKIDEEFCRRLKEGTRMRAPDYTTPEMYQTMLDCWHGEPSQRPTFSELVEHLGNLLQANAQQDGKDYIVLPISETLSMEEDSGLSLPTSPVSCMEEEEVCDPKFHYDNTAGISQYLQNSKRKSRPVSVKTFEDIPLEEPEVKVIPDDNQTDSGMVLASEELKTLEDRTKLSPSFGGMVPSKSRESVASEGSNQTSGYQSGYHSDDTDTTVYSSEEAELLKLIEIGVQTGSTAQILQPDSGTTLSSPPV

Turning to VEGF-A165 (from UniProt P15692), the Kd is 210 pM.

By Kd is commonly meant the equilibrium constant for the complex coming apart.
